In the assay the target is GoxA (glycine oxidase) from Pseudoalteromonas luteoviolacea, glycine-soaked (Gly-GoxA) (Pseudoalteromonas luteoviolacea). Kind of assay: crystal structure.

With “GoxA (glycine oxidase) from Pseudoalteromonas luteoviolacea, glycine-soaked (Gly-GoxA) (enzyme)”, the stoichiometry N came to 4.

In general, stoichiometry N refers to a count of units in the complex or per binding partner.

The record behind these values is article PMC6381839.
